Data reported in the supplement of paper PMC10567573.

B1: APBB1IP (parent)
chain: FNYSVGFKDLNESLNALEDQDLDA

Variants of: B1
Experiment: protein stability index of a GFP-peptide fusion (GPS, HEK-293T) (PSI 1-6); higher = more stable
Details: c terminus: a fixed tail appended
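Further: lentivirally expressed fusions sorted by FACS into six bins by GFP to DsRed ratio, PSI derived from sequencing read proportions per bin multiplied by bin number.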

Protein stability index of substitutions, site by site:
L17: H 4.18, D 5.25, I 4.68, P 4.65, N 5.02, W 3.85, C 4.48, Y 3.96, T 5.18, A 4.63, E 5.04, R 5.01, G 4.51, M 4.17, S 4.78, K 4.48, F 4.43, Q 4.88, V 4.68
D19: F 3, N 4.04, P 3.65, I 3.86, A 3.97, G 4.36, Y 3.93, L 3.53, V 3.56, M 3.05, W 3.42, S 3.73, T 3.86, E 4.53, Q 3.83, R 3.67, H 3.7, K 4.5, C 4.06
L14: K 4.48, Y 4.49, G 4.9, R 4.57, I 4.71, D 4.89, H 5.1, C 3.86, S 4.47, A 4.71, F 4, M 4.61, W 4.05, N 5.06, E 4.51, P 4.76, T 4.98, Q 4.88, V 4.5
L10: H 4.58, N 4.75, R 4.54, Y 4.52, K 4.88, Q 4.93, W 3.95, A 4.71, E 5.09, V 4.86, T 4.55, G 4.95, S 5.06, I 4.26, F 3.95, C 3.5, M 4.81, P 4.62, D 5.16
G6: M 3.12, L 2.3, W 2.32, N 4.04, P 4.73, I 3.03, K 4.05, V 2.55, Q 4.17, A 3.34, S 3.89, E 4.2, D 4.85, C 3, F 2.58, T 3.57, H 3.71, Y 1.71, R 3.9
N11: A 4.45, Y 3.25, S 4.21, H 4.21, C 4.06, T 4.58, D 4.75, R 4.18, K 4.17, Q 4.38, W 2.58, V 3.45, M 3.68, P 4.23, L 3.78, G 4.29, F 3.62, E 4.88, I 3.31
Y3: I 4.21, T 5.54, K 5.17, N 5.12, M 4.4, R 5.36, S 4.76, P 5.15, H 4.07, E 5.43, F 3.71, D 4.89, V 3.54, L 4.52, W 3.87, C 4.74, G 4.82, A 5.06, Q 5.36
S13: V 3.67, W 2.85, I 2.88, L 2.83, G 4.58, Q 4.51, T 3.72, N 4.17, E 3.95, A 4.56, C 4.25, R 4.15, P 4.41, F 3.34, Y 3.54, H 4.51, M 3.88, D 4.31, K 3.8
K8: R 4.33, Q 4.72, V 3.52, G 4.65, D 5.05, C 3.36, L 3.17, W 2.27, N 4.74, T 3.54, I 2.51, M 3.73, F 2.99, E 5.1, S 4.56, A 4.16, Y 3.58, P 4.79, H 3.81
Q20: D 4.4, A 4.42, C 4.02
N2: P 2.44, Q 2.88, Y 2.72, S 2.64, R 3.26, W 2.4, V 2.96, T 2.23
D9: P 4.15, I 2.49, H 4.08, V 2.67, A 3.99, F 3.52, S 3.45, Y 3.44, Q 4.22, E 4.25, L 3.09, W 2.7, K 4.19, T 4.2, R 4.05, G 4.39, C 3.13, N 4.31, M 3.86
S4: V 3.72, Q 5.1, C 4.31, W 2.56, A 4.53, N 4.61, M 4.23, F 3.24, L 3.71, P 3.29, D 5.11, G 4.88, Y 3.42, K 4.02, I 3.76, H 4.79, T 4.62, R 4.82, E 5.53
N15: I 4.01, W 2.92, S 4.15, L 4.04, A 4.44, K 4.77, P 5, Q 4.28, C 4.32, D 4.77, R 3.64, E 4.14, F 3.72, Y 3.62, T 4.78, V 4.7, M 4.39, G 4.78, H 4.08
A16: H 4.37, C 4.47, D 4.6, P 4.33, G 3.94, M 4.1, L 4.04, N 4.51, V 3.47, W 3.41, I 4, R 4.14, E 5.02, F 3.92, Q 4.52, S 4.19, T 4.57, Y 3.93, K 4.36
E18: N 4.06, D 4.34, S 3.71, C 3.56, I 2.67, M 3.59, A 3.66, L 3.24, V 3.35, Q 3.98, R 2.87, K 3.82, W 2.52, G 3.96, T 3.44, F 2.79, P 4.51, H 3.92, Y 2.95
F7: L 4.53, E 5.24, W 3.9, P 4.49, V 4.92, H 4.57, T 5.27, G 5.22, D 5.21, N 5.13, Y 4.55, K 5.18, A 5.3, R 5.71, C 5.09, I 4.21, S 5.41, Q 5.15, M 4.48
E12: W 2.8, V 3.96, A 3.74, S 4.17, D 4.32, K 4.29, G 4.2, P 4.53, T 4.24, Q 4.28, H 3.69, N 4.37, M 3.87, L 3.23, C 2.82, Y 3.12, F 3.63, R 3.92, I 3.69
V5: N 4.36, M 4.51, R 4.82, C 4.08, I 4.38, A 4.95, H 4.76, G 4.19, K 4.65, L 4.55, E 4.47, F 4.34, D 4.65, W 3.68, Y 4.09, Q 4.65, P 4.99, T 4.96, S 4.86
